The values that follow come from publication PMC10707181, “Neuronal Scaffold Protein ARMS Interacts with Synaptotagmin-4 C2AB through the Ankyrin Repeat Domain with an Unexpected Mode” (International Journal of Molecular Sciences, 2023).

For assay [1], the target named is T1, ARMS R1-11 K180A (rat, UniProt Q9EQG6 1-365, K180A).
T1 sequence: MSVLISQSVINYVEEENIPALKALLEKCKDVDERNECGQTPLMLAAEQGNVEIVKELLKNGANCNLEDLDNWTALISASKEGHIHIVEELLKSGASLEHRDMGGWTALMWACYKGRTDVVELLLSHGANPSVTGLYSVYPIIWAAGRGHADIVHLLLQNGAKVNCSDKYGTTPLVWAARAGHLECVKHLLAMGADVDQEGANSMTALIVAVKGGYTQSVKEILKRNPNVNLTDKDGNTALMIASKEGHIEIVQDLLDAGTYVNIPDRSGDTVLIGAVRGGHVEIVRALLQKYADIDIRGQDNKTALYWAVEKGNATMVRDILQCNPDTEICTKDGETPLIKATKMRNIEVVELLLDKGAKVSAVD
As to the kind of experiment: ITC.

For assay [2], the target named is T2, ARMS R1-11 K180A (rat, UniProt Q9EQG6 1-365, K180A).
T2 construct: ARMS (Kidins220), rat, UniProt Q9EQG6, residues 1-365 (R1-11) with K180A; also called ARMS K180A; source: E. coli BL21 (DE3), purified (Ni-NTA, size-exclusion chromatography)
T2 sequence (looked up): T1 sequence
Description: ITC; ARMS proteins (200 μM) in the syringe, Syt4 proteins (20 μM) in the cell; 25 °C; 50 mM Tris, 100 mM NaCl, 1 mM EDTA, 1 mM DTT, pH 7.8; one-site binding model. The note with it: both partners purified. (ITC needs no label: the signal is the heat of the interaction.)

The target in assay [3] is T3, ARMS ankyrin repeats 1–11 (R1-11, residues 1–365) (rat, UniProt Q9EQG6 1-365).
T3 construct: ARMS (Kidins220), rat, UniProt Q9EQG6, residues 1-365: ankyrin repeats 1-11; also called ARMS R1-11; ARMS R1-11 WT; source: E. coli BL21 (DE3), purified (Ni-NTA, size-exclusion chromatography)
T3 sequence (looked up): T1 sequence with A180K
Described as above. The note with it: both partners purified.

For assay [4], the target named is T4, ARMS protein N-terminal region (NT, residues 1–455) (rat, UniProt Q9EQG6 1-455).
T4 construct: ARMS (Kidins220), rat, UniProt Q9EQG6, residues 1-455: N-terminal region with the entire ankyrin repeat domain; also called ARMS NT; Kidins220 NT; source: E. coli BL21 (DE3), purified (Ni-NTA, size-exclusion chromatography)
T4 sequence (looked up): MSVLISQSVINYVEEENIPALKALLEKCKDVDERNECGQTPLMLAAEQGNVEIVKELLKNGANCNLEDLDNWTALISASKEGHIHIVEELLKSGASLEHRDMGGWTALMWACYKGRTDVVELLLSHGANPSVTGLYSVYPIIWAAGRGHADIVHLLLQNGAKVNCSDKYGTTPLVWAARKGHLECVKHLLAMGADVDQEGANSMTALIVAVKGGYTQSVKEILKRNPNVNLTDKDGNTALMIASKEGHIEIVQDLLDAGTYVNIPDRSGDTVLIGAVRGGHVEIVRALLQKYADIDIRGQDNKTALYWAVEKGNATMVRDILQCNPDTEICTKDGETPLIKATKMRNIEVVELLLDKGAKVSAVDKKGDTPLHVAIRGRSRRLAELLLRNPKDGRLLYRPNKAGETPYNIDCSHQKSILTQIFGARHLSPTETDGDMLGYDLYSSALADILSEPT
Described as above. The note with it: both partners purified.

Residue numbers refer to the chain shown, from its start. Names and notes keep the numbering of the source.

B1: Syt4 132–425 (domain or fragment, human, UniProt Q9H2B2-1 132-425, looked up)
chain: ESVSPESLKSSTSLTSEEKQEKLGTLFFSLEYNFERKAFVVNIKEARGLPAMDEQSMTSDPYIKMTILPEKKHKVKTRVLRKTLDPAFDETFTFYGIPYTQIQELALHFTILSFDRFSRDDIIGEVLIPLSGIELSEGKMLMNREIIKRNVRKSSGRGELLISLCYQSTTNTLTVVVLKARHLPKSDVSGLSDPYVKVNLYHAKKRISKKKTHVKKCTPNAVFNELFVFDIPCEGLEDISVEFLVLDSERGSRNEVIGQLVLGAAAEGTGGEHWKEICDYPRRQIAKWHVLCDG
notes: source: E. coli BL21 (DE3), purified (Ni-NTA, size-exclusion chromatography)
As a reminder, the Kd is the equilibrium constant for the complex coming apart. A higher Kd goes with a looser complex. In turn, B1 came in with a Kd with ARMS R1-11 K180A [1] of 11 µM. Besides, the binding result (with ARMS R1-11 K180A [2]; in assay [3]) was “binds” throughout.

B2: Syt4 132–425 Q186A (domain or fragment, human, UniProt Q9H2B2-1 132-425, looked up)
chain: B1 chain with Q55A
notes: also called Syt4 Q186A; source: E. coli BL21 (DE3), purified (Ni-NTA, size-exclusion chromatography)
For the molecule B2, the binding result in assay [3] is listed as “binds”.

B3: Syt4 C2AB (residues 151–425) (domain or fragment, human, UniProt Q9H2B2-1 151-425, looked up)
chain: QEKLGTLFFSLEYNFERKAFVVNIKEARGLPAMDEQSMTSDPYIKMTILPEKKHKVKTRVLRKTLDPAFDETFTFYGIPYTQIQELALHFTILSFDRFSRDDIIGEVLIPLSGIELSEGKMLMNREIIKRNVRKSSGRGELLISLCYQSTTNTLTVVVLKARHLPKSDVSGLSDPYVKVNLYHAKKRISKKKTHVKKCTPNAVFNELFVFDIPCEGLEDISVEFLVLDSERGSRNEVIGQLVLGAAAEGTGGEHWKEICDYPRRQIAKWHVLCDG
notes: also called Syt4 CAB; source: E. coli BL21 (DE3), purified (Ni-NTA, size-exclusion chromatography)
As to B3, in assay [3], the Kd was ~7 µM.

B4: Syt4 132–425 K284A (domain or fragment, human, UniProt Q9H2B2-1 132-425, looked up)
chain: B1 chain with K153A
notes: also called Syt4 K284A variant; source: E. coli BL21 (DE3), purified (Ni-NTA, size-exclusion chromatography)
As to B4, the binding result in assay [3] is recorded as “binds”.

B5: full length of the cytoplasmic region of Syt4 (CD, residues 41–425) (domain or fragment, human, UniProt Q9H2B2-1 41-425, looked up)
chain: KSSKSNKTPPYKFVHVLKGVDIYPENLNSKKKFGADDKNEVKNKPAVPKNSLHLDLEKRDLNGNFPKTNLKPGSPSDLENATPKLFLEGEKESVSPESLKSSTSLTSEEKQEKLGTLFFSLEYNFERKAFVVNIKEARGLPAMDEQSMTSDPYIKMTILPEKKHKVKTRVLRKTLDPAFDETFTFYGIPYTQIQELALHFTILSFDRFSRDDIIGEVLIPLSGIELSEGKMLMNREIIKRNVRKSSGRGELLISLCYQSTTNTLTVVVLKARHLPKSDVSGLSDPYVKVNLYHAKKRISKKKTHVKKCTPNAVFNELFVFDIPCEGLEDISVEFLVLDSERGSRNEVIGQLVLGAAAEGTGGEHWKEICDYPRRQIAKWHVLCDG
notes: also called Synaptotagmin-4 CD; source: E. coli BL21 (DE3), purified (Ni-NTA, size-exclusion chromatography)
B5: in assay [4], the Kd is ~17 µM.
